Source: patent publication US20200255494A1

Target: anti-HA1H TCR expressed on SupT1 cells
Assay: cell-based or functional assay

| Substance | EC50 for HA1H peptide (pulsing concentration) in killing of SupT1 anti-HA1H TCR target cells, 48 h co-culture, 2:1 effector to target, flow cytometry |
| --- | --- |
| MHC I CAR with β2m-41BBz: HLA-A02 / β2m-41BBz chimeric construct loaded with recombinant HA1H peptide, on transduced PBMC CAR-T cells (from UniProt P61769 21-119; P20963 31-51; Q07011 214-255; P20963 52-163) (peptide-MHC) | 0.1 µM |
| MHC I CAR with β2m-CD3z: HLA-A02 / β2m-CD3z chimeric construct loaded with recombinant HA1H peptide, on transduced PBMC CAR-T cells (from UniProt P61769 21-119; P20963 31-51; P20963 52-163) (peptide-MHC) | 0.5 µM |
